Results from patent US20240084017A1 (ASCENDO BIOTECHNOLOGY, published 2024).
Where a chain is given by its changes, count along the chain named. Values belong to the binder of their own block, whether it stands above or below them.

How the values were obtained:
[1] = biological target: T1, human Mac-1 (integrin αMβ2, CD11b/CD18) (human, UniProt P11215 17-1152; P05107 23-769); assay: flow cytometry, HEK293/Mac-1 cells, PBS (Mock), 10 µg/ml of this antibody; binding of reporter mAb KIM127 read
Method: (§1) The HEK293/Mac-1 cells (clone1-4) were counted and washed twice with staining buffer (PBS containing 1% FBS, and 0.1% sodium azide). Cells were adjusted at a concentration of 1×10⁵ cells/ml in staining buffer and treated with/without 0.25 mM MnCl₂ (Sigma). Cells were treated with anti-Mac-1 antibodies and fluorescent conjugated anti-human IgG4 antibodies and incubated for 15 mins. After washing with the staining buffer, the cells were analyzed by flow cytometry. In some examples, these cells were treated with the antibodies (ICRF44, KIM127, m24, or isotype control) in the presence or absence 10 μg/ml anti-Mac-1 antibodies. The cells were then incubated at 37° C. for 30 min. After washing with the staining buffer, the cells were analyzed by flow cytometry.
(§2) TABLE III The anti-Mac-1 antibodies can serve as agonist to enhance the conformational change of Mac-1. HEK293/Mac-1 cells (clone1-4) were incubated with 10 μg/ml anti-Mac-1 antibodies under the PBS (Mock) condition. Binding of KIM127 or m24 was detected using flow cytometry.

[2] = biological target: T1, human Mac-1 (integrin αMβ2, CD11b/CD18); assay: flow cytometry, HEK293/Mac-1 cells, PBS/MnCl2 (Mn2+), 10 µg/ml of this antibody; binding of reporter mAb KIM127 read
Method: as §1
(§3) TABLE IV The anti-Mac-1 antibody can serve as an antagonist to reduce the conformational change of Mac-1. HEK293/Mac-1 cells (clone1-4) were incubated with 10 μg/ml anti-Mac-1 antibodies under the PBS/MnCl₂ (Mn²⁺) condition. Binding of KIM127 or m24 was detected using flow cytometry.

[3] = biological target: T1, human Mac-1 (integrin αMβ2, CD11b/CD18); assay: flow cytometry, HEK293/Mac-1 cells (clone 1-4), PBS/MnCl2 (Mn2+)
Method: as §1
(§4) TABLE II The anti-Mac-1 antibodies selectively bind to different statuses of human Mac-1. HEK293/Mac-1 cells (clone1-4) were incubated in PBS (Mock), or PBS/MnCl₂ (Mn²⁺). Binding of isotype control IgG, the CD11b specific mAb (ICRF44), the CD11b activation-sensing mAb (CBRM1/5), or the screened anti-Mac-1 antibody was detected using flow cytometry.

[4] = biological target: T1, human Mac-1 (integrin αMβ2, CD11b/CD18); assay: flow cytometry, HEK293/Mac-1 cells; MFI in PBS over MFI in PBS/MnCl2
Method: as §1, §4

[5] = biological target: T1, human Mac-1 (integrin αMβ2, CD11b/CD18); assay: flow cytometry, HEK293/Mac-1 cells (clone 1-4), PBS (Mock)
Method: as §1, §4

[6] = biological target: T1, human Mac-1 (integrin αMβ2, CD11b/CD18); assay: flow cytometry, HEK293/Mac-1 cells, PBS (Mock), 10 µg/ml of this antibody; binding of reporter mAb m24 read
Method: as §1, §2

[7] = biological target: T1, human Mac-1 (integrin αMβ2, CD11b/CD18); assay: flow cytometry, HEK293/Mac-1 cells, PBS/MnCl2 (Mn2+), 10 µg/ml of this antibody; binding of reporter mAb m24 read
Method: as §1, §3

KIM127 (Expression relative to IgG4) [1]: 1.04 relative to IgG4 | KIM127 (Expression relative to IgG4) [2]: 0.85 relative to IgG4 | Mn^2+ MFI [3]: 48000 MFI | Mock/Mn^2+ Ratio [4]: 1.35 | Mock MFI [5]: 64600 MFI | m24 (Expression relative to IgG4) [6]: 0.88 relative to IgG4 | m24 (Expression relative to IgG4) [7]: 0.88 relative to IgG4
B1: anti-Mac-1 antibody clone 27A06 (antibody, human IgG4, V domains shown)
VH: QVKLQQSGPELVTPGASVKISCKPSGYSFTDYNMNWVKQSNGKSLEWIGEINPNYGTTRHNQKFKGKASLTVDQSSSTAYMQLISLTSEDSAVYYCARTYDYDEDAFAYWGQGTTVTVSS
VL: DIELTQSPAIMSASPGEKVTMTCSASSSVSYMHWYQQKSDTSPKRWIYDTSKLASGVPARFSGSGSGTSYSLTISSMEAEDAATYYCQQWSSNPPTFGAGTKLELK

KIM127 (Expression relative to IgG4) [1]: 1.11 relative to IgG4 | KIM127 (Expression relative to IgG4) [2]: 0.89 relative to IgG4 | Mn^2+ MFI [3]: 41100 MFI | Mock/Mn^2+ Ratio [4]: 1.05 | Mock MFI [5]: 43100 MFI | m24 (Expression relative to IgG4) [6]: 1 relative to IgG4 | m24 (Expression relative to IgG4) [7]: 1.14 relative to IgG4
B2: anti-Mac-1 antibody clone 27G04 (antibody, human IgG4, V domains shown)
VH: B1 VH with Q6E, T13K, P24A, E50V, R59S, H60Y, S69T, I84N, Y100F, E104D
VL: B1 VL with M21I, Y31D, D40G, S76N

KIM127 (Expression relative to IgG4) [1]: 0.98 relative to IgG4 | KIM127 (Expression relative to IgG4) [2]: 0.65 relative to IgG4 | Mn^2+ MFI [3]: 56400 MFI | Mock/Mn^2+ Ratio [4]: 0.95 | Mock MFI [5]: 53400 MFI | m24 (Expression relative to IgG4) [6]: 0.63 relative to IgG4 | m24 (Expression relative to IgG4) [7]: 0.85 relative to IgG4
B3: anti-Mac-1 antibody clone 28E07 (antibody, human IgG4, V domains shown)
VH: QVQLQQSGPELVKPGASVKISCKASGYSFTDYNMNWVKQSNGKSLEWIGEINPGYGTSRYNQKFKDKATLTVDQSSTTAYMQLNSLTSEDSAVYYCARADVDYGDVMDYWGQGTTVTVSS
VL: B1 VL with D40G, A59T

KIM127 (Expression relative to IgG4) [1]: 1.02 relative to IgG4 | KIM127 (Expression relative to IgG4) [2]: 0.87 relative to IgG4 | Mn^2+ MFI [3]: 37300 MFI | Mock/Mn^2+ Ratio [4]: 1.48 | Mock MFI [5]: 55200 MFI | m24 (Expression relative to IgG4) [6]: 0.88 relative to IgG4 | m24 (Expression relative to IgG4) [7]: 1.07 relative to IgG4
B4: anti-Mac-1 antibody clone 28A12 (antibody, human IgG4, V domains shown)
VH: B3 VH with Q3K, Q6E, T77S, V106T
VL: B1 VL with Y31D, D40G, T41N, A59V

KIM127 (Expression relative to IgG4) [1]: 0.9 relative to IgG4 | KIM127 (Expression relative to IgG4) [2]: 0.87 relative to IgG4 | Mn^2+ MFI [3]: 1.02e+06 MFI | Mock/Mn^2+ Ratio [4]: 1.01 | Mock MFI [5]: 1.03e+06 MFI | m24 (Expression relative to IgG4) [6]: 0.83 relative to IgG4 | m24 (Expression relative to IgG4) [7]: 0.75 relative to IgG4
B5: anti-Mac-1 antibody clone 28E07-HH (antibody, human IgG4, V domains shown)
VH: QVQLVQSGAEVKKPGASVKVSCKASGYSFTDYNMNWVRQAPGQGLEWMGEINPGYGTSRYNQKFKDRVTMTRDTSISTAYMELSRLRSDDTAVYYCARADVDYGDVMDYWGQGTLVTVSS
VL: EIVLTQSPATLSLSPGERATLSCSASSSVSYMHWYQQKPGQAPRLLIYDTSKLASGIPARFSGSGSGTDFTLTISSLEPEDFAVYYCQQWSSNPPTFGQGTKLEIK

KIM127 (Expression relative to IgG4) [1]: 1.58 relative to IgG4 | KIM127 (Expression relative to IgG4) [2]: 1.34 relative to IgG4 | Mn^2+ MFI [3]: 65800 MFI | Mock/Mn^2+ Ratio [4]: 0.6 | Mock MFI [5]: 39600 MFI | m24 (Expression relative to IgG4) [6]: 9.33 relative to IgG4 | m24 (Expression relative to IgG4) [7]: 2.11 relative to IgG4
B6: anti-Mac-1 antibody clone 25A04 (antibody, human IgG4, V domains shown)
VH: EVQLVESGGGLVQPGGSLRLSCAASGFTFSFTAMHWVRQAPGKGLEWVSAIIYNGSEADYADSVKGRFTISRDNSKNTLYLQMNSLRAEDTAVYYCARANDYDHGCCDNYAMDYWGQGTLVTVSS
VL: DIQMTQSPSSLSASVGDRVTITCRASQGIGSYLYWYQQKPGKAPKLLIYDASNLQSGVPSRFSGSGSGTDFTLTISSLQPEDFATYYCMQHGGWPLTFGQGTKVEIK

KIM127 (Expression relative to IgG4) [1]: 1.01 relative to IgG4 | KIM127 (Expression relative to IgG4) [2]: 0.89 relative to IgG4 | Mn^2+ MFI [3]: 26900 MFI | Mock/Mn^2+ Ratio [4]: 1.1 | Mock MFI [5]: 29500 MFI | m24 (Expression relative to IgG4) [6]: 0.72 relative to IgG4 | m24 (Expression relative to IgG4) [7]: 1 relative to IgG4
B7: anti-Mac-1 antibody clone 24G09 (antibody, human IgG4, V domains shown)
VH: EVQLVESGGGLVQPGGSLRLSCAASGFTFSDYAIGWVRQAPGKGLEWVSTIYWSGSNAYYADSVKGRFTISRDNSKNTLYLQMNSLRAEDTAVYYCARLFTLGYHGFDVWGQGTLVTVSS
VL: B6 VL with G28S, G30N, S31T, Y34N, M89Q, H91Y, G92D, G93D, W94L, L96F
